Data published in patent US20240000960A1 (CLEVELAND CLINIC FOUNDATION, published 2024).

Molecular target: T1, CD6 (as used in surface plasmon resonance) (human, UniProt P30203 18-402, limits assumed)
T1 construct: also called human CD6
T1 sequence (looked up): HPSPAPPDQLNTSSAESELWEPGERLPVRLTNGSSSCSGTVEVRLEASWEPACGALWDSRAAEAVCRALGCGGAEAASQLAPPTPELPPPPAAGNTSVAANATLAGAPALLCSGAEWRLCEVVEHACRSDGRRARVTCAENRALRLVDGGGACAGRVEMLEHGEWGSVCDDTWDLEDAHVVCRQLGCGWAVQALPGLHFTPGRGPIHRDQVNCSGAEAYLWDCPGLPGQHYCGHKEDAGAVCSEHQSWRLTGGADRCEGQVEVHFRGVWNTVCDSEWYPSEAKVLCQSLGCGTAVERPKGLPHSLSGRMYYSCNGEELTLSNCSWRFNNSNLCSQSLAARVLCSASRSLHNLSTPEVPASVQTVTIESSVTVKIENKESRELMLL
Assay: surface plasmon resonance

- Kd: 10 pM
B1: mouse anti-human CD6 IgG (UMCD6) (antibody, V domains shown)
VH: QVQLKESGPGLVAPSQSLSITCTVSGFSLSRYSVHWVRQPPGKGLEWLGLIWGGGFTDYNSALKSRLSITKDNSKSQVFLKMNSLQTDDTAMYYCAREGVAYWGQGTLVSVSA
VL: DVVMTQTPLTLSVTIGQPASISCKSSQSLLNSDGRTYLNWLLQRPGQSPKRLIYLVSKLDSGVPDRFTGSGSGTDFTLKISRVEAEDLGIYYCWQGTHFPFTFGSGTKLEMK
notes: Mouse IgG; also called parent anti-CD6 mAb; parental mouse anti-CD6 IgG
